For orientation: Kd means the concentration at which binding is half-saturated. Lower therefore signals tighter binding.

Consider one substance from paper PMC11970506.

This assay deals with POTRA1, 2 construct of BamA (E. coli). Briefly: SPR; Biacore T100; POTRA1, 2 immobilised by amine coupling to a CM5 chip; SurA flowed at 0 to 10 mg/ml; 25 mM MES, 150 mM NaCl, pH 6.5, 25°C. Background: Surface plasmon resonance follows binding to a sensor surface in real time, without labels.

“survival protein A (SurA), without the signal sequence (amino acids 21 to 428) (from UniProt P0ABZ6 21-428) (natural protein)”: the Kd turned out to be 16 µM.
